The values below are quoted from earlier work in publication PMC7154116.

For this data set, the target named is NTSR3/sortilin (UniProt Q99523).
Chain of UniProt Q99523 (Q99523 78-755): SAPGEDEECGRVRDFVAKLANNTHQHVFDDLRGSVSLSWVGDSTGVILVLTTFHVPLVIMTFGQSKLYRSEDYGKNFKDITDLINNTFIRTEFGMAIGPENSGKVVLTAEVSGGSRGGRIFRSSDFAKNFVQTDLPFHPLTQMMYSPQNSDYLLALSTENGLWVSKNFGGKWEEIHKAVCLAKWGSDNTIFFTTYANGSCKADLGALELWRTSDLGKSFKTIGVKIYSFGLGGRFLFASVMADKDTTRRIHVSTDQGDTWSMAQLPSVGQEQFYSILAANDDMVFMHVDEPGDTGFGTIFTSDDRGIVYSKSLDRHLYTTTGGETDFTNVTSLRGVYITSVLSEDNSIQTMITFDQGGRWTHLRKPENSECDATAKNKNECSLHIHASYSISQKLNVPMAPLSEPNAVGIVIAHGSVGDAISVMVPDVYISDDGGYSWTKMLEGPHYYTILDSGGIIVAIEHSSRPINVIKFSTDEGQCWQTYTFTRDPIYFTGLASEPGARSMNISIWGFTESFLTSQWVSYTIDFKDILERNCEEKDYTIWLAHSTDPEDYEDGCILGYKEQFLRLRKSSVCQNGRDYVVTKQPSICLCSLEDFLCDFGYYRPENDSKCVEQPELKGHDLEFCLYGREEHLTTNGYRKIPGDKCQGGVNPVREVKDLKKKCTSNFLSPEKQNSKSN

As for “Spadin propeptide fragment (from UniProt Q99523)”, the dissociation constant Kd (commonly the constant that tells how readily two partners part at equilibrium) was 8 nM.
